Measured values: PMC4393884 (Structure (London, England : 1993), 2014)

T1: truncated PR-B (233-933) (human, UniProt P06401 233-933)
T1 sequence (looked up): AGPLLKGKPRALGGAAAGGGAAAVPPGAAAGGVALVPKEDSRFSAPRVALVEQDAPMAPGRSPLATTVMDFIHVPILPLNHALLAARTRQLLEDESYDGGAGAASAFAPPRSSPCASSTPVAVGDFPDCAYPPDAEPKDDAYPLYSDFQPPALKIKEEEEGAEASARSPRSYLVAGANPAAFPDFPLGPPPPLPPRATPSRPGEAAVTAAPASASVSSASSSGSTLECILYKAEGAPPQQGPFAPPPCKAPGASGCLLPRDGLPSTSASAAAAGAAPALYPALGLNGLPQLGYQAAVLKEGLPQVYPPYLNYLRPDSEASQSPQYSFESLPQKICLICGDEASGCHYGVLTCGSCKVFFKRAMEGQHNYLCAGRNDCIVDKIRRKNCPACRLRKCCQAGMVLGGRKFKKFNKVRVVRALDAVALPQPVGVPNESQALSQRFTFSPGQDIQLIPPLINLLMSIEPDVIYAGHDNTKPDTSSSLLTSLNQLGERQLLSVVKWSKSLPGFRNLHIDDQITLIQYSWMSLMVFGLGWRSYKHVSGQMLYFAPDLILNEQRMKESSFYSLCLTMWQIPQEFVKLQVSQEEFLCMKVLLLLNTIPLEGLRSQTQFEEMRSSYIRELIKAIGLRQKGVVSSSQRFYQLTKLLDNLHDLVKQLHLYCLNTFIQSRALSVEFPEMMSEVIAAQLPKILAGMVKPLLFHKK

B1: full length progesterone receptor isoform B (PR-B) (receptor, human, UniProt P06401 1-933, looked up)
chain: MTELKAKGPRAPHVAGGPPSPEVGSPLLCRPAAGPFPGSQTSDTLPEVSAIPISLDGLLFPRPCQGQDPSDEKTQDQQSLSDVEGAYSRAEATRGAGGSSSSPPEKDSGLLDSVLDTLLAPSGPGQSQPSPPACEVTSSWCLFGPELPEDPPAAPATQRVLSPLMSRSGCKVGDSSGTAAAHKVLPRGLSPARQLLLPASESPHWSGAPVKPSPQAAAVEVEEEDGSESEESAGPLLKGKPRALGGAAAGGGAAAVPPGAAAGGVALVPKEDSRFSAPRVALVEQDAPMAPGRSPLATTVMDFIHVPILPLNHALLAARTRQLLEDESYDGGAGAASAFAPPRSSPCASSTPVAVGDFPDCAYPPDAEPKDDAYPLYSDFQPPALKIKEEEEGAEASARSPRSYLVAGANPAAFPDFPLGPPPPLPPRATPSRPGEAAVTAAPASASVSSASSSGSTLECILYKAEGAPPQQGPFAPPPCKAPGASGCLLPRDGLPSTSASAAAAGAAPALYPALGLNGLPQLGYQAAVLKEGLPQVYPPYLNYLRPDSEASQSPQYSFESLPQKICLICGDEASGCHYGVLTCGSCKVFFKRAMEGQHNYLCAGRNDCIVDKIRRKNCPACRLRKCCQAGMVLGGRKFKKFNKVRVVRALDAVALPQPVGVPNESQALSQRFTFSPGQDIQLIPPLINLLMSIEPDVIYAGHDNTKPDTSSSLLTSLNQLGERQLLSVVKWSKSLPGFRNLHIDDQITLIQYSWMSLMVFGLGWRSYKHVSGQMLYFAPDLILNEQRMKESSFYSLCLTMWQIPQEFVKLQVSQEEFLCMKVLLLLNTIPLEGLRSQTQFEEMRSSYIRELIKAIGLRQKGVVSSSQRFYQLTKLLDNLHDLVKQLHLYCLNTFIQSRALSVEFPEMMSEVIAAQLPKILAGMVKPLLFHKK
B2: full length progesterone receptor isoform A (PR-A) (receptor, human, UniProt P06401-2 1-769, looked up)
chain: MSRSGCKVGDSSGTAAAHKVLPRGLSPARQLLLPASESPHWSGAPVKPSPQAAAVEVEEEDGSESEESAGPLLKGKPRALGGAAAGGGAAAVPPGAAAGGVALVPKEDSRFSAPRVALVEQDAPMAPGRSPLATTVMDFIHVPILPLNHALLAARTRQLLEDESYDGGAGAASAFAPPRSSPCASSTPVAVGDFPDCAYPPDAEPKDDAYPLYSDFQPPALKIKEEEEGAEASARSPRSYLVAGANPAAFPDFPLGPPPPLPPRATPSRPGEAAVTAAPASASVSSASSSGSTLECILYKAEGAPPQQGPFAPPPCKAPGASGCLLPRDGLPSTSASAAAAGAAPALYPALGLNGLPQLGYQAAVLKEGLPQVYPPYLNYLRPDSEASQSPQYSFESLPQKICLICGDEASGCHYGVLTCGSCKVFFKRAMEGQHNYLCAGRNDCIVDKIRRKNCPACRLRKCCQAGMVLGGRKFKKFNKVRVVRALDAVALPQPVGVPNESQALSQRFTFSPGQDIQLIPPLINLLMSIEPDVIYAGHDNTKPDTSSSLLTSLNQLGERQLLSVVKWSKSLPGFRNLHIDDQITLIQYSWMSLMVFGLGWRSYKHVSGQMLYFAPDLILNEQRMKESSFYSLCLTMWQIPQEFVKLQVSQEEFLCMKVLLLLNTIPLEGLRSQTQFEEMRSSYIRELIKAIGLRQKGVVSSSQRFYQLTKLLDNLHDLVKQLHLYCLNTFIQSRALSVEFPEMMSEVIAAQLPKILAGMVKPLLFHKK

Tests used:
SEC = target: the molecule itself; assay: SEC
truncated PR-B (233-933) = target: T1, truncated PR-B (233-933); assay: HDX-MS
[1] = target: B1; assay: HDX-MS
[2] = target: B2; assay: HDX-MS

Row | Binder | stoichiometry N (SEC) | binding result (truncated PR-B (233-933)) | binding result [1] | binding result [2]
1 | B1 | 2 |  |  | 
2 | C-terminal core DNA binding domain (aa 159-339) of human TATA-binding protein (TBPc) (domain or fragment, UniProt P20226 159-339, looked up) SGIVPQLQNIVSTVNLGCKLDLKTIALRARNAEYNPKRFAAVIMRIREPRTTALIFSSGKMVCTGAKSEEQSRLAARKYARVVQKLGFPAKFLDFKIQNMVGSCDVKFPIRLEGLVLTHQQFSSYEPELFPGLIYRMIKPRIVLLIFVSGKVVLTGAKVRAEIYEAFENIYPILKGFRKTT |  | binds | binds | binds
3 | B2 | 2 |  |  | 
